Values quoted from earlier work as cited in paper PMC3208733.
“And” between values parts separate entries of the source, which are not always exact repeats. Identical values can stand only once.

Biological target: scaffolding protein (Salmonella phage P22) (UniProt P26748)

scaffolding protein (from UniProt P26748)
Kd: 78 µM and 170 µM
